Where a chain is given by its changes, count along the chain named.
B1: 012517-O12 (protein)
chain: MALPVTALLLPLALLLHAARPLEGKPIPNPLLGLDSTGSGEDLKNVFPPEVAVFEPSKAEIAHTQKATLVCLATGFYPDHVELSWWVNGKEVHSGVCTDPQPLKEQPALNDSRYCLSSRLRVSATFWQNPRNHFRCQVQFYGLSENDEWTQDRAKPVTQIVSAEAWGRADCGITSASYHQGVLSATILYEILLGKATLYAVLVSALVLMAMVKRKDSRGRAKRSGSGATNFSLLKQAGDVEENPGPTSMALPVTALLLPLALLLHAARPDIQMTQSSSYLSVSLGGRVTITCKASDHINNWLAWYQQKPGNAPRLLISGATSLETGVPSRFSGSGSGKDYTLSITSLQTEDVATYYCQQYWSTPWTFGGGTKLEIKGGGGSGGGGSGGGGSQVQLQQSGAELARPGASVKLSCKASGYTFTSYWMQWVKQRPGQGLEWIGAIYPGDGDTRYTQKFKGKATLTADKSSSTAYMQLSSLASEDSAVYYCARGKVYYGSNPFAYWGQGTLVTVSATREQKLISEEDGSGIQNPDPAVYQLRDSKSSDKSVCLFTDFDSQTNVSQSKDSDVYITDKCVLDMRSMDFKSNSAVAWSNKSDFACANAFNNSIIPEDTFFPSSDVPCDVKLVEKSFETDTNLNFQNLSVIGFRILLLKVAGFNLLMTLRLWSSRAKRSGSGVKQTLNFDLLKLAGDVESNPGPSRGHMTEYKPTVRLATRDDVPRAVRTLAAAFADYPATRHTVDPDRHIERVTELQELFLTRVGLDIGKVWVADDGAAVAVWTTPESVEAGAVFAEIGPRMAELSGSRLAAQQQMEGLLAPHRPKEPAWFLATVGVSPDHQGKGLGSAVVLPGVEAAERAGVPAFLETSAPRNLPFYERLGFTVTADVEVPEGPRTWCMTRKPGA
B2: 022817-N08 (protein)
chain: MALPVTALLLPLALLLHAARPDVVMTQTPLSLSVTPGQPASISCRSSQSLVHNNGNTYLHWYLQKPGQSPQLLIYKVSNRFSGVPDRFSGSGSGTDFTLKISRVEAEDVGVYFCSQSTHVPPYTFGGGTKVEIKLEEQKLISEEDLGSGEDLKNVFPPEVAVFEPSKAEIAHTQKATLVCLATGFYPDHVELSWWVNGKEVHSGVCTDPQPLKEQPALNDSRYCLSSRLRVSATFWQNPRNHFRCQVQFYGLSENDEWTQDRAKPVTQIVSAEAWGRADCGITSASYHQGVLSATILYEILLGKATLYAVLVSALVLMAMVKRKDSRGRAKRSGSGATNFSLLKQAGDVEENPGPTSMDWIWRILFLVGAATGAHSFEEVQLVESGGGLVQPGGSLRLSCAASGFTFSDYYMAWVRQAPGKGLEWVAEINYDGSSTYYVDSVKGRFTISRDNAKNSLYLQMNSLRAEDTAVYYCARDRGFYFDYWGQGTTVTVSSTREQKLISEEDLGSGIQNPDPAVYQLRDSKSSDKSVCLFTDFDSQTNVSQSKDSDVYITDKCVLDMRSMDFKSNSAVAWSNKSDFACANAFNNSIIPEDTFFPSSDVPCDVKLVEKSFETDTNLNFQNLSVIGFRILLLKVAGFNLLMTLRLWSSRAKRSGSGVKQTLNFDLLKLAGDVESNPGPSRGHMTEYKPTVRLATRDDVPRAVRTLAAAFADYPATRHTVDPDRHIERVTELQELFLTRVGLDIGKVWVADDGAAVAVWTTPESVEAGAVFAEIGPRMAELSGSRLAAQQQMEGLLAPHRPKEPAWFLATVGVSPDHQGKGLGSAVVLPGVEAAERAGVPAFLETSAPRNLPFYERLGFTVTADVEVPEGPRTWCMTRKPGA
B3: 012517-N12 (protein)
chain: MALPVTALLLPLALLLHAARPLEGKPIPNPLLGLDSTGSGEDLKNVFPPEVAVFEPSKAEIAHTQKATLVCLATGFYPDHVELSWWVNGKEVHSGVCTDPQPLKEQPALNDSRYCLSSRLRVSATFWQNPRNHFRCQVQFYGLSENDEWTQDRAKPVTQIVSAEAWGRADCGITSASYHQGVLSATILYEILLGKATLYAVLVSALVLMAMVKRKDSRGRAKRSGSGATNFSLLKQAGDVEENPGPTSMALPVTALLLPLALLLHAARPDVVMTQSPLSLPVTPGEPASISCRSSQSLVHSNGNTYLHWYLQKPGQSPQLLIYKVSNRFSGVPDRFSGSGSGTDFTLKISRVEAEDVGVYFCSQSTHVPPFTFGGGTKVEIKGGGGSGGGGSGGGGSEVQLVESGGGLVQPGGSLRLSCAASGFTFSDYYMAWVRQAPGKGLEWVADINYDGGSTYYLDSLKSRFTISRDNAKNSLYLQMNSLRAEDTAVYYCARDRGYYFDYWGQGTLVTVSSTREQKLISEEDGSGIQNPDPAVYQLRDSKSSDKSVCLFTDFDSQTNVSQSKDSDVYITDKCVLDMRSMDFKSNSAVAWSNKSDFACANAFNNSIIPEDTFFPSSDVPCDVKLVEKSFETDTNLNFQNLSVIGFRILLLKVAGFNLLMTLRLWSSRAKRSGSGVKQTLNFDLLKLAGDVESNPGPSRGHMTEYKPTVRLATRDDVPRAVRTLAAAFADYPATRHTVDPDRHIERVTELQELFLTRVGLDIGKVWVADDGAAVAVWTTPESVEAGAVFAEIGPRMAELSGSRLAAQQQMEGLLAPHRPKEPAWFLATVGVSPDHQGKGLGSAVVLPGVEAAERAGVPAFLETSAPRNLPFYERLGFTVTADVEVPEGPRTWCMTRKPGA
B4: 012517-D12 (protein)
chain: B3 chain with S276T, P281S, E286Q, N304L, D447S, G453E, L458V, L461V, S463G, L509T
B5: 010417-Z03 (protein)
chain: MALPVTALLLPLALLLHAARPLEGKPIPNPLLGLDSTGSGEDLKNVFPPEVAVFEPSKAEIAHTQKATLVCLATGFYPDHVELSWWVNGKEVHSGVCTDPQPLKEQPALNDSRYCLSSRLRVSATFWQNPRNHFRCQVQFYGLSENDEWTQDRAKPVTQIVSAEAWGRADCGITSASYHQGVLSATILYEILLGKATLYAVLVSALVLMAMVKRKDSRGRAKRSGSGATNFSLLKQAGDVEENPGPTSTMALPVTALLLPLALLLHAARPDIQMTQSPSSLSASVGDRVTITCKASQDVGIAVAWYQQKPGKVPKLLIYWASTRHTGVPDRFSGSGSGTDFTLTISSLQPEDVATYYCQQYSSYPYTFGQGTKVEIKGGGGSGGGGSGGGGSEVQLVESGGGLVQPGGSLRLSCAASGFDFSRYWMSWVRQAPGKGLEWIGEINPDSSTINYAPSLKDKFIISRDNAKNSLYLQMNSLRAEDTAVYYCARPDGNYWYFDVWGQGTLVTVSSTREAAAKEIVMTQSPATLSLSPGERATLSCRASQDISKYLNWYQQKPGQAPRLLIYHTSRLHSGIPARFSGSGSGTDYTLTISSLQPEDFAVYFCQQGNTLPYTFGQGTKLEIKGGGGSGGGGSGGGGSQVQLQESGPGLVKPSETLSLTCTVSGVSLPDYGVSWIRQPPGKGLEWIGVIWGSETTYYNSSLKSRVTISKDNSKNQVSLKLSSVTAADTAVYYCAKHYYYGGSYAMDYWGQGTLVTVSSTREQKLISEEDGSGIQNPDPAVYQLRDSKSSDKSVCLFTDFDSQTNVSQSKDSDVYITDKCVLDMRSMDFKSNSAVAWSNKSDFACANAFNNSIIPEDTFFPSSDVPCDVKLVEKSFETDTNLNFQNLSVIGFRILLLKVAGFNLLMTLRLWSSRAKRSGSGVKQTLNFDLLKLAGDVESNPGPSRGHMTEYKPTVRLATRDDVPRAVRTLAAAFADYPATRHTVDPDRHIERVTELQELFLTRVGLDIGKVWVADDGAAVAVWTTPESVEAGAVFAEIGPRMAELSGSRLAAQQQMEGLLAPHRPKEPAWFLATVGVSPDHQGKGLGSAVVLPGVEAAERAGVPAFLETSAPRNLPFYERLGFTVTADVEVPEGPRTWCMTRKPGA

Test system: target antigen-expressing cell line
Test: Jurkat NFAT-GFP assay, coculture with target cell lines expressing the respective target antigen (summary Table 10A)
Format: cell-based, human
Parameters: key: The signs +/−, +, 2+ etc. after the name of the cell lines indicate the relative degree of positivity on the Jurkat-NFAT-GFP assay as measured by the % GFP positive cells; +: relative degree of positivity on the Jurkat-NFAT-GFP assay as measured by the % GFP positive cells; 2+: relative degree of positivity on the Jurkat-NFAT-GFP assay as measured by the % GFP positive cells
In short: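 Read-out: % GFP+ cells by FACS. SIR-transduced, puromycin-selected Jurkat NFAT-GFP (IL-2 promoter reporter) cocultured ~4–18 h with target line, E:T ~1:2; parental cells as control; graded +/−, +, 2+ relative to parental.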

Molecule | NFAT-GFP ASSAY Positive Cell lines (coculture with L363 cells) | NFAT-GFP ASSAY Positive Cell lines (coculture with U266 cells) | NFAT-GFP ASSAY Positive Cell lines (coculture with NALM6 cells) | NFAT-GFP ASSAY Positive Cell lines (coculture with RAJI cells)
B1 | +/− | + |  | 
B2 | (+/−) | U266 (+/−), L363 |  | 
B3 | + | 2+ |  | 
B4 | U266 (+), L363 (+) | U266 (+), L363 (+) |  | 
B5 |  |  | NALM6 | RAJI

From patent publication US12269859B2, “Synthetic immune receptors and methods of use thereof” (Angeles Therapeutics, Inc., priority 2016, dated 2025)
